Measurements taken from patent US7807788 (GlaxoSmithKline, dated 2010).
Where “and” joins values, the source holds several entries; their conditions need not be identical. Equal values may be shown once. One block for each binder: values may come before it.

How the values were obtained:
[1] = target: T1, recombinant E.coli-expressed human IL-4 (human, UniProt P05112 25-153); test: sandwich ELISA: human IL-4 captured by goat anti-human IL-4 polyclonal, titrated antibody (positive control)
T1 sequence (looked up): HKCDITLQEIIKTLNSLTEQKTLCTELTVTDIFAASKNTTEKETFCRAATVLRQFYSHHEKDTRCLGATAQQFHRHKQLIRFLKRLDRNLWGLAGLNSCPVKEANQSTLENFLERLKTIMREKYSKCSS

[2] = target: T2, recombinant E.coli-expressed cynomolgus IL-13 (cynomolgus, UniProt Q5I6E4 21-132 (Macaca thibetana entry)); test: cell-based or functional assay
T2 chain: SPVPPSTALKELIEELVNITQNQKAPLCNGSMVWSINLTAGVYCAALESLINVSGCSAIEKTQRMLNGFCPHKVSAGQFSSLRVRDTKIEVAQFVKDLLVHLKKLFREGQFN

alanine-scan peptide 66 = target: T3, alanine-scan peptide 66 (human, N-terminal biotin); test: peptide ELISA: immobilised biotinylated peptide, titrated parental 6A1 (mAb named in legend paragraph 137, not on the sheet)
T3 construct: also called F106A peptide
T3 peptide: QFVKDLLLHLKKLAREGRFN

alanine-scan peptide 65 = target: T4, alanine-scan peptide 65 (human, N-terminal biotin); test: as above
T4 construct: also called L105A peptide
T4 peptide: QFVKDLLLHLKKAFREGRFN

[3] = target: T5, alanine-scan peptide 1 (parental sequence, no substitution) (human, N-terminal biotin); test: as above
T5 construct: also called parental peptide
T5 peptide: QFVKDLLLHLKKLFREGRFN

alanine-scan peptide 63 = target: T6, alanine-scan peptide 63 (human, N-terminal biotin); test: as above
T6 construct: also called K103A peptide
T6 peptide: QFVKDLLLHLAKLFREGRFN

[4] = target: T7, recombinant E.coli-expressed human IL-13 (human, UniProt P35225 35-146); test: sandwich ELISA: E.coli-expressed human IL-13 captured by goat anti-human IL-13 polyclonal, titrated 6A1, anti-mouse IgG-HRP
T7 construct: Untagged E.coli material, bought (Cambridge Bioscience) or made in-house (CA); also called hIL-13; human IL13 (CA)

[5] = target: T7, recombinant E.coli-expressed human IL-13; test: cell-based or functional assay

EC50 (read off the curve) [1]: ~0.03 µg/mL
B1: anti-human IL4 mAb (antibody, V domains shown)
VH: QVQLQQSGPELVKPGASVKISCKASGYSFTSYWIHWIKQRPGQGLEWIGMIDPSDGETRLNQRFQGRATLTVDESTSTAYMQLRSPTSEDSAVYYCTRLKEYGNYDSFYFDVWGAGTLVTVSS
VL: DIQMTQSPASLSVSVGDTITLTCHASQNIDVWLSWFQQKPGNIPKLLIYKASNLHTGVPSRFSGSGSGTGFTLTISSLQPEDIATYYCQQAHSYPFTFGGGTKLEIKR

Mean ND50 for 2 assays, TF-1 bioassay [2]: 0.078 µg/mL
EC50 (read off the curve) (alanine-scan peptide 66): ~0.03 µg/mL
EC50 (read off the curve) (alanine-scan peptide 65): ~0.03 µg/mL
EC50 (read off the curve) [3]: ~0.02 µg/mL and ~0.03 µg/mL
EC50 (read off the curve) (alanine-scan peptide 63): ~0.02 µg/mL
EC50 (read off the curve) [4]: ~0.03 µg/mL
B2: mouse monoclonal antibody 6A1 (antibody, mouse IgG1, V domains shown)
VH: EIQLQQSVAELVRPGASVRLSCTASGFYIKDTYMHWVIQRPEQGLEWIGTIDPANGNTKYVPKFQGKATITADTSSNTAYLRLSSLTSEDTAIYYCARSIYDDYHYDDYYAMDYWGQGTSVTVSS
VL: DVLMTQTPLSLPVSLGDQASISCRSSQNIVHINGNTYLEWYLQKPGQSPKLLIYKISDRFSGVPDRFSGSGSGTDFTLKISRVEAEDLGVYYCFQGSHVPWTFGGGTKLEIK
notes: Murine IgG1/kappa from hybridoma; also called mAb 6A1; 6A1 parental mAb

Mean ND50 for 2 assays, TF-1 bioassay [5]: 0.119 µg/mL
B3: chimaeric 6A1 monoclonal antibody (antibody, human IgG1, V domains shown)
VH: B2 VH
VL: B2 VL
